Values of other authors in patent publication US20220347322A1, “METHOD OF TREATING ARTERIOVENOUS MALFORMATIONS BY TARGETING THE EPHRIN PATHWAY” (THE REGENTS OF THE UNIVERSITY OF CALIFORNIA, priority 2019, published 2022).

Tested on: EphB4 signaling
Conditions: in mice; cited reference 38; cited from earlier work

B1: sEphB4: The soluble extracellular domain of EphB4; pharmacological inhibitor of EphB4 signaling (protein, UniProt P54760 16-539, looked up)
extracellular domain: LEETLLNTKLETADLKWVTFPQVDGQWEELSGLDEEQHSVRTYEVCDVQRAPGQAHWLRTGWVPRRGAVHVYATLRFTMLECLSLPRAGRSCKETFTVFYYESDADTATALTPAWMENPYIKVDTVAAEHLTRKRPGAEATGKVNVKTLRLGPLSKAGFYLAFQDQGACMALLSLHLFYKKCAQLTVNLTRFPETVPRELVVPVAGSCVVDAVPAPGPSPSLYCREDGQWAEQPVTGCSCAPGFEAAEGNTKCRACAQGTFKPLSGEGSCQPCPANSHSNTIGSAVCQCRVGYFRARTDPRGAPCTTPPSAPRSVVSRLNGSSLHLEWSAPLESGGREDLTYALRCRECRPGGSCAPCGGDLTFDPGPRDLVEPWVVVRGLRPDFTYTFEVTALNGVSSLATGPVPFEPVNVTTDREVPPAVSDIRVTRSSPSSLSLAWAVPRAPSGAVLDYEVKYHEKGAEGPSSVRFLKTSENRAELRGLKRGASYLVQVRARSEAGYGPFGQEHHSQTQLDESEGWREQLA
modifications: extracellular domain
In the case of B1, the “inhibition of EphB4 signaling” value is listed as “completely inhibits EphB4 signaling”.
